Test results published in patent publication US20070172470A1, “Phosphatase regulation of nucleic acid transcription” (The Regents of the University of California, priority 2003, published 2007).

Legend:
[1] = format: biochemical; conditions: PNθP as substrate
[2] = tested on: ElALuc, pGL3-Luc and Gal4-TATA-Luc constructs; experiment: Luciferase reporter assay, basal promoter activity; format: cell-based, human; conditions: cotransfected
From the text: (§1) Gal4-DNA binding domain-SCP1 fusion protein expression plasmids-were cotransfected in HEK293 cells with a Gal 4-TKLuc reporter plasmid and luciferase gene expression quantitated. In all panels, results of triplicate transfections are shown +/− SD. Data is expressed as fold-activation experimental/control). […] The indicated amounts of SCP1 or mutant SCP1 expression plasmids were cotransfected in HEK293 cells along with Gal 4-VP16 expression and Gal 4-TK-Luc reporter plasmids and luciferase activity was quantitated. […] The indicated receptor expression plasmids were cotransfected with their cognate promoter-reporter plasmids with or without SCP1 or mutant SCP1 expression plasmids. Cells were treated or untreated with receptor-specific ligands as described infra. […] The indicated concentrations of SCP1 and mutant SCP1 expression plasmids were cotransfected with LMX1 and E47 expression plasmids and the rat insulin 1 promoter-luciferase reporter gene. Luciferase activity was measured as described.
(§2) Tissue Culture and Transfections: Human 293, COS7 and CV1 cells were grown at 37° C. in DMEM supplemented with 10% normal calf serum (BRL). Sub-confluent cells were transfected in 6 well tissue culture dishes using Effectene (Qiagen) according to the manufacturer's instructions. Reporter and activator plasmids (100 ng each) and Flag SCP1 (80 ng) or its mutant were used per well. […]

[3] = tested on: rat insulin 1 promoter-luciferase reporter gene; experiment: Rat insulin promoter-luciferase assay with LMX1 and E47; format: cell-based; conditions: LMX1 and E47 co-expressed
From the text: as §1, §2

[4] = tested on: P19 mouse embryonic stem cells; experiment: Neuronal differentiation of P19 cells; format: cell-based; conditions: clonal P19 line, retinoic acid, selective medium
Protocol: P19 cells, C, differentiated GFP expressing P19 cells; D, differentiated SCP1-expressing P19 cells; F, differentiated REST/NRSF-expressing P19 cells. Numbers of NLC per field are shown. *p=0.001 compared to WT 19 cells; **p=0.008 compared to WT P19 cell using student's t-test.
P19 stably expressing REST/NRSF.
These cell lines were maintained in α-MEM/10%FBS with […] G418. To induce neuronal differentiation, P19 cells were allowed to aggregate in bacterial grade petri-dishes (Fisher) at a seeding density of 1×10^5cells/ml in the presence of 1×10^−6M all-trans retinoic acid. After 3 days of aggregation, cells were dissociated into single cells by 0.05% trypsin-0.53 mM EDTA (Gibco). Trypsin was removed by centrifugation and the cells were plated in 6 cm tissue culture dishes (Nunc). at a density of 1×10^5 cells/cm^2 in Neurobasal medium/N2 supplement (Invitrogen) in the presence or absence of 1 μg/ml fibronectin (Invitrogen). The cells were cultured for 5 days after which average cell numbers/field were determined. Cells were either lysed to prepare total RNA (Rneasy kit, Qiagen) or stained with TuJ1 antibody (Babco).
For immunostaining, cells were fixed for 10 mins with 4% paraformaldehyde. TuJ1 antibody was used at 1:2000 and secondary antibody used was FITC-conjuagated anti-mouse (1:3000).

B1: SCP1: small CTD phosphatase-1, full-length 261 aa human protein, SEQ ID NO:2 (protein, listed as Homo sapiens)
chain: MDSSAVITQISKEEARGPLRGKGDQKSAASQKPRSRGILHSLFCCVCRDDGEALPAHSGAPLLVEENGAIPKTPVQYLLPEAKAQDSDKICVVIDLDETLVHSSFKPVNNADFIIPVEIDGVVHQVYVLKRPHVDEFLQRMGELFECVLFTASLAKYADPVADLLDKWGAFRARLFRESCVFHRGNYVKDLSRLGRDLRRVLILDNSPASYVFHPDNAVPVASWFDNMSDTELHDLLPFFEQLSRVDDVYSVLRQPRPGS
[1]; GST-fusion
  pH optimum for SCP1 phosphatase activity: ~5
[1]; Ca2+ could not substitute
  divalent metal ion requirement of phosphatase activity: Mg^2+-dependent
[2]
  reporter gene expression from basal promoter constructs: no significant effect
[3]; 40 ng SCP1 plasmid alone
  inhibition of luciferase expression: > 90%
[3]; 40 ng SCP1 plasmid plus 20 ng mutant SCP1 plasmid
  inhibition of luciferase expression: ~20%
[4]
  effect on neuronal differentiation: did not affect the extent of neuronal differentiation
